Experimental data from US20140296146A1, “Thermostable Inhibitors of Activation of the Blood Clotting System Through Contact with Foreign Surfaces” (Synapse B.V., priority 2011, published 2014).

T1: h-FXIIa (Homo sapiens, UniProt P00748)
T1 construct: purchased Enzyme Research Laboratories FXIIa 1212A
T1 sequence (P00748 373-615 limits assumed): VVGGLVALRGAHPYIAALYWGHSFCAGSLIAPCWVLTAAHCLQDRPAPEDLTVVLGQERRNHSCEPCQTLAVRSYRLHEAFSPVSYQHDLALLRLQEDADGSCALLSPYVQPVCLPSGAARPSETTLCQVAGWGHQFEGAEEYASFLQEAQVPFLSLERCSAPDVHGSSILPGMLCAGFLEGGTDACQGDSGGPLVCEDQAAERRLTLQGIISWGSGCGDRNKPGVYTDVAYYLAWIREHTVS
T1 sequence (P00748 20-372 partner limits assumed): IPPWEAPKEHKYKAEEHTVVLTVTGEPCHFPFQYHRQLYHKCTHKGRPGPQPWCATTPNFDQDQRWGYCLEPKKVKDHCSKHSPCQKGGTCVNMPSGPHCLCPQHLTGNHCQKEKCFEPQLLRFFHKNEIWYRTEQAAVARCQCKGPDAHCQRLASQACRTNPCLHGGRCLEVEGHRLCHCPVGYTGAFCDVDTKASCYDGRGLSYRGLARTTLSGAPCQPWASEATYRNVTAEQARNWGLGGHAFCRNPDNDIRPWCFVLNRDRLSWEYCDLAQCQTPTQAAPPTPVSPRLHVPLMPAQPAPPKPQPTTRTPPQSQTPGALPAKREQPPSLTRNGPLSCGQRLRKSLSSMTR

T2: h-FXIIa (human, UniProt P00748 20-615)
T2 construct: also called factor XIIa
T2 sequence (looked up): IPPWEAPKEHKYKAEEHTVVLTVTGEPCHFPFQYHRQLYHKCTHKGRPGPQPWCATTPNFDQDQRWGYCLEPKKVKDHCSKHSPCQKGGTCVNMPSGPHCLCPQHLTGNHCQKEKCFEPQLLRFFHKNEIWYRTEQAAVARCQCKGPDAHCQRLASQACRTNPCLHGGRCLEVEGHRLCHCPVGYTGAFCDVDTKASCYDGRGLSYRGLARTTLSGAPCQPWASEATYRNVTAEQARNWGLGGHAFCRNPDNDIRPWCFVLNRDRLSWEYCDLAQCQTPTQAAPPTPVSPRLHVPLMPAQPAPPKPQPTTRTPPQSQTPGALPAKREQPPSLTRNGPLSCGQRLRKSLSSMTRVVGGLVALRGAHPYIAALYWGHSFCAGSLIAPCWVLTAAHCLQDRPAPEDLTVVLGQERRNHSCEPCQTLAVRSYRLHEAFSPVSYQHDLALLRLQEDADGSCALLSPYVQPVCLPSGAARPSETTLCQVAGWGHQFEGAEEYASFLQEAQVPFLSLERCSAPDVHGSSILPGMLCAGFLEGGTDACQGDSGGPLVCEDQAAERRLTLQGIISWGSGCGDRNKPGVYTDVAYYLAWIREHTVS

B1: Corn trypsin inhibitor (other, UniProt P01088 29-138, looked up)
chain: SAGTSCVPGWAIPHNPLPSCRWYVTSRTCGIGPRLPWPELKRRCCRELADIPAYCRCTALSILMDGAIPPGPDAQLEGRLEDLPGCPREVQRGFAATLVTEAECNLATIS
notes: also called CTI

Legend:
h-FXIIa [1] = target: T1, h-FXIIa; experiment: Effect of inhibitors on hydrolysis of S2302 by h-FXIIa; assay type: biochemical
Protocol: Materials • S2302 From Chromogenic, lot # N0398718 SEQ0860, exp. date 2012-07. Water added on 7 Oct. […] On 3 Aug. […] Product code FXIIa 1212A, lot #FXIIa 2520PL. Bottle with 0.5 mg was reconstituted with 370 μl pure water. […] Buffer 4 mM NaAc, 150 mM NaCl (pH 5.3). Preparation was divided into 20 μl amounts and frozen at −80° C. • Hepes735 140 mM NaCl, 20 mM Hepes, 0.02% NaN3 (pH 7.35). • BSA5 Hepes735+5 mg/ml BSA. • CTI Prepared on 17 Dec. 2004, 0.141 mg/ml, i.e. 0.141/12028=11.7*10^−6 M (11.7 μM). One portion was thawed and divided into 3 parts. Part 1 was frozen at −80° C.; part 2 was kept at RT; and part 3 was incubated 30 min at 95° C. and then kept at RT.
(§1) Stock FXIIa was diluted 700× in BSA5. The inhibitor was diluted in BSA5 as indicated. Wells contained 70 μl diluted FXIIa (5 nM final), 70 μl inhibitor and 20 μl S2302 (475 or 462.5 μM final). The reaction was started after 5 min heating on the heating plate with S2302. Filters 405 nm and 490 nm reference. Found mΔA/min was multiplied by 2.14 to get the figure for a 1 cm path.
The residual activity (V) was fitted against the PTI concentration with equation:
V=(E+(sqrt(Ê2+2*E*(Ki−I)+Î2+2*I*Ki+Kî2)−E−I−Ki)/2)*kcat*S/(Km+S)
(§2) in which E=[FXIIa], Ki is the dissociation constant, I=[Inhibitor], kcat and Km are Michaelis constants and S=[S2302].

contact activation = experiment: Clotting time of blood taken on inhibitor only, without Ca2+ binding substance; conditions: tube heated for one hour in boiling water; 10 μg/ml
Protocol: Indeed STI inhibited contact activation so well that blood taken on a solution not containing sodium citrate or another substance that binds Ca^2+ ions but only STI (10 μg/ml) remained fluid for over 45 minutes, under conditions where in absence of STI it would clot in less than 5 min. […] CTI under similar circumstances, at 10 μg/ml, lost much of its activity because a clotting time of <15 min. was observed.

h-FXIIa [2] = target: T2, h-FXIIa; experiment: S2302 hydrolysis by h-FXIIa (5.01 nM); inhibitor kept at -80° C. (reference)
Protocol: as §1, with “ΔmA/min” for “mΔA/min”

h-FXIIa [3] = target: T2, h-FXIIa; experiment: S2302 hydrolysis by h-FXIIa (5 nM), fit of residual activity; dissociation constant of the complex
Protocol: as §1, §2

h-FXIIa [4] = target: T2, h-FXIIa; experiment: S2302 hydrolysis by h-FXIIa (5.01 nM); inhibitor 30 min 95° C., against -80° C.
Protocol: as §1, with “ΔmA/min” for “mΔA/min”

Row | Molecule | Ki (h-FXIIa [1]; Ki, Table 2, inhibitory activity of different polypeptides) | Ki (h-FXIIa [1]; ki F.XIIa (ng/ml), After heating) | Ki (h-FXIIa [1]; ki F.XIIa (ng/ml), Before heating) | clotting time of blood after sterilization of the tube containing inhibitor (contact activation) | Res. Act. (%) (h-FXIIa [2]) | Ki (h-FXIIa [3]) | Res. Act. (%) (h-FXIIa [4])
1 | CC[C@H](C)[C@@H]1NC(=O)[C@H](CCCNC(=N)N)NC(=O)[C@@H]2CCCN2C(=O)[C@@H](NC(=O)[C@@H](NC(=O)[C@@H](N)CCCNC(=N)N)C(C)C)CSSC[C@@H]2NC(=O)[C@H](CCC(=O)O)NC(=O)[C@H](C)NC(=O)[C@H](CC(C)C)NC(=O)[C@@H]3CSSC[C@@H](C(=O)NCC(=O)O)NC(=O)[C@H](Cc4ccc(O)cc4)NC(=O)CNC(=O)[C@H](Cc4c[nH]cn4)NC(=O)[C@H](CCC(=O)O)NC(=O)[C@H](CC(C)C)NC(=O)[C@H](CSSC[C@H](NC(=O)[C@H](CCCCN)NC(=O)[C@H](CCSC)NC(=O)[C@H](CC(C)C)NC1=O)C(=O)N[C@@H](CCCCN)C(=O)N[C@@H](CCCCN)C(=O)N[C@@H](CC(=O)O)C(=O)N[C@@H](CO)C(=O)N[C@@H](CC(=O)O)C(=O)N3)NC(=O)[C@H](C(C)C)NC2=O [TICA1] | 25.5 nM | 26 nM | 25.4 nM |  |  |  | 
2 | B1 |  |  |  | < 15 min | 100% | 2.9 nM | 70%
